# Positions count from the first letter of the chain named. Names and notes keep the numbering of the source.
# B1: Polλxt (Homo sapiens; C543A/DEL464-472/INS464KGET) (protein)
# chain: AQPSSQKATNHNLHITEKLEVLAKAYSVQGDKWRALGYAKAINALKSFHKPVTSYQEACSIPGIGKRMAEKIIEILESGHLRKLDHISESVPVLELFSNIWGAGTKTAQMWYQQGFRSLEDIRSQASLTTQQAIGLKHYSDFLERMPREEATEIEQTVQKAAQAFNSGLLCVACGSYRRGKATCGDVDVLITHPDGRSHRGIFSRLLDSLRQEGFLTDDLVSKGETYLGVCRLPGPGRRHRRLDIIVVPYSEFACALLYFTGSAHFNRSMRALAKTKGMSLSEHALSTAVVRNTHGAKVGPGRVLPTPTEKDVFRLLGLPYREPAERDW
# notes: Δ1-241; Loop1 residues 464-472 replaced by KGET of Polβ; cleavable N-terminal 14-His tag; E. coli
# B2: Polλxt (Homo sapiens; C543A/DEL464-472/I492K/INS464KGET) (protein)
# chain: B1 chain with I246K
# notes: as for B1
# B3: Polλxt (Homo sapiens; C543A/DEL464-472/H530Y/I492R/INS464KGET/S528N) (protein)
# chain: B1 chain with I246R, S282N, H284Y
# notes: as for B1
# B4: Polλxt (Homo sapiens; C543A/DEL464-472/E529D/I492K/INS464KGET) (protein)
# chain: B1 chain with I246K, E283D
# notes: as for B1
# Key:
# Assay in all cases: steady-state single-nucleotide gap-filling, FAM-primer urea-PAGE, Michaelis-Menten fit
# Details in all cases: 1 µM gap-filling DNA (continuous template), 5 nM enzyme, 5 mM MgCl2, pH 7.5, 27°C
# [1] = substrate: Nc1nc2c(ncn2[C@H]2C[C@H](O)[C@@H](COP(=O)(O)OP(=O)(O)OP(=O)(O)O)O2)c(=O)[nH]1; type: biochemical, Homo sapiens
# Source text: steady-state single-nucleotide gap-filling, FAM-primer urea-PAGE, Michaelis-Menten fit on Polλxt | all mutants underwent steady-state characterization in gap-filling context (Fig. 4B and C)
# [2] = substrate: Nc1nc2c(ncn2[C@H]2C[C@H](O)[C@@H](COP(=O)(O)OP(=O)(O)OP(=O)(O)O)O2)c(=O)[nH]1; type: biochemical, Homo sapiens; remark: listed apart in the source
# [3] = substrate: Nc1nc2c(ncn2[C@H]2C[C@H](O)[C@@H](COP(=O)(O)OP(=O)(O)OP(=O)(O)O)O2)c(=O)[nH]1; type: biochemical, Homo sapiens; remark: listed apart in the source
# Source text: steady-state single-nucleotide gap-filling, FAM-primer urea-PAGE, Michaelis-Menten fit on Polλxt | despite an almost normal KM in the […] range
# [4] = substrate: Nc1nc2c(ncn2[C@H]2C[C@H](O)[C@@H](COP(=O)(O)OP(=O)(O)OP(=O)(O)O)O2)c(=O)[nH]1; type: biochemical, Paramecium
protein,measurement,setting,value
B1,Km,[1],1893 (949.4 - 4602.0) nM
B2,Km,[2],494.7 (237.7 - 937.3) nM
B3,Km,[3],849.9 (587.8 - 1277.0) nM
B4,Km,[4],399.3 (247.1 - 607.0) nM
